Measurements from the supplement of paper PMC10567573.

B1: FEM1A (parent)
chain: NIVEYLIQEQPGQEQVAGGEAQPG
B2: COX4I1 (parent)
chain: VAHVKHLSASQKALKEKEKASWSS

Variants of: B1
Assay: protein stability index of a GFP-peptide fusion (GPS, HEK-293T) (PSI 1-6); higher = more stable
Details: c terminus: a fixed tail appended
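Further: lentivirally expressed fusions sorted by FACS into six bins by GFP to DsRed ratio, PSI derived from sequencing read proportions per bin multiplied by bin number.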

Protein stability index of substitutions, site by site:
I2: L 4.29; F 4.24; A 5.21; H 5.49; G 5.39; K 5.27; D 5.12; N 5.41; M 4.15; P 5.54; C 5.17; E 5.63
N1: S 3.7; M 2.16; K 3.36; P 5.17; Y 2.52; E 3.85; Q 3.89; T 2.92; A 2.91; D 3.66; G 4.34; F 2.54; H 3.76; C 2.79; I 3.26; L 1.85; V 2.76; W 2.71; R 3.19

Variants of: B2
Assay: as above
Details: c terminus: a fixed tail appended

Protein stability index: each site, then its substitutions
S24: Q 3.94; T 3.57; I 3.56; A 3.41; Y 3.13; H 3.45; R 3.38; K 4.25; D 2.98; F 3.33; W 2.95; C 3.31; E 2.81; P 4.36; G 3.62; V 3.15; N 3.76; M 3.17; L 3.41
A20: E 1.71; R 3.65; D 3.27; K 3.48; Y 2.29; Q 2.57; H 3.23; N 3.05; G 3.25; P 3.36; C 3.28; M 2.39; L 2.86; S 3.16; F 3.13; T 3.25; W 2; I 2.76; V 3.21
K17: Y 3.06; W 2.35; V 2.95
E18: T 2.87; C 3.38; R 2.77; Y 2.67; M 2.13; H 3.64; F 2.51; W 2.69; Q 4.05; G 3.13; S 3.02; N 2.98; P 2.52; K 2.92; D 3.15; V 2.59; A 2.92; L 2.69; I 3.15
S23: L 3.1; Y 3.41; V 2.61; G 4.07; A 1.82; M 3.77; P 4.06; R 3.22; Q 2.81; W 2.81; E 3.26; C 2.22; F 3.65; D 4.4; H 3.68; I 2.91; N 4; K 3.74; T 2.91
K19: F 2.64; N 3.4; D 3.85; V 3.03; Q 3.02; E 4.5; C 2.79; I 3.21; M 2.7; R 3.71; G 3.52; P 3.63; Y 2.28; H 2.89; L 2.48; T 3.17; S 3.52; W 3.46; A 3.86
S21: L 3.16; Y 3.32; C 3.74; W 3.24; T 3.32; V 3.96; D 4.18; E 4.42; G 3.6; H 3.46; I 3.68; R 3.49; K 3.47; A 3.98; F 3.72; N 3.75; Q 4.07; M 3.39; P 3.73
W22: H 4.48; F 4.6; I 4.38; E 5.33; N 5.21; P 5.12; L 4.74; R 4.58; V 4.98; S 5.08; C 4.97; T 4.96; G 5.03; D 4.85; Q 4.79; M 4.88; A 5.14; K 4.78; Y 4.29
